In publication PMC7083937, “The ribosome-associated complex RAC serves in a relay that directs nascent chains to Ssb” (Nature Communications, 2020):
“Also recorded” adds a separate entry of the source.

Key:
nascent Pgk1-100 = assay: crosslinking to ribosome-bound nascent chain; format: binding, Saccharomyces cerevisiae; settings: BS3
Excerpt: (§1) DNA templates for transcription reactions were generated by PCR using pSPUTK-Pgk1[20] as a template. Reverse primers were designed such, that PCR products encoded different length PGK1 sequences, which all lacked a stop codon. The length of the resulting translation products, which remain ribosome-bound, is indicated in Results and Figure Legends. Transcripts were generated using SP6 polymerase (Thermo Fischer Scientific) as previously described. RNCs were generated via translation reactions primed with the stop codon-less transcripts at 20 °C in the presence of [^35S]-methionine (Hartmann-Analytic) for 80 min[20],[54]. Translation reactions were stopped by the addition of 50 µg/ml cycloheximide final concentration and subsequently RNCs were isolated via centrifugation at 400.000 g for 20 min in a TLA-100 or TLA-100.2 rotor (Beckman Coulter)[20].
(§2) Chemical crosslinking of ribosome-bound nascent chains to Ssb, Zuo1, or Ssz1 was analyzed essentially as described. In brief, resuspended RNCs were incubated in the presence of 400 µM BS^3 (bis-(sulfosuccinimidyl)-suberate, spacer length 1.14 nm, Thermo Scientific) for 20 min on ice and crosslinking was then quenched by the addition of TRIS base (tris(hydroxymethyl)aminomethane) to a final concentration of 50 mM. Crosslinked protein samples were precipitated by the addition of TCA (final concentration 5%), pellets were collected by centrifugation and were dissolved in dissociation buffer (200 mM TRIS/HCl pH 7.5, 4% SDS; 10 mM EDTA, 100 µg/ml BSA, protease inhibitor mix, 1 mM PMSF). Totals shown in Figs. 1,3 and Supplementary Fig. 1 before (total) and after BS^3 crosslinking (total + BS^3) represent 5% of the dissolved material employed for immunoprecipitation reactions. The resulting denatured protein samples were used to identify crosslink products between Ssb, Zuo1, or Ssz1 and nascent chains via affinity purification under denaturing conditions. To that end, protein A sepharose beads (GE Healthcare) were pre-coated with antibodies directed against Ssb, Zuo1, or Ssz1 and subsequently the denatured crosslinked material was allowed to bind to the beads resuspended in immunoprecipitation buffer (10 mM TRIS/HCl pH 7.5, 150 mM NaCl, 5 mM EDTA, 1% Triton X-100, protease inhibitor mix, 0.5 mM PMSF)[20]. Crosslink products bound to protein A sepharose beads were released by addition of SDS-sample buffer at 95 °C for 10 min. Samples were analyzed on Tris-Tricine gels[56] followed by autoradiography. Loading was normalized according to the signal of [^35S]-labelled nascent Pgk1 in the total prior to crosslinking. Relative crosslinking efficiencies between nascent Pgk1-100 and Zuo1 or Ssz1, respectively were determined as follows. For each biological replicate, band intensities of non-crosslinked nascent Pgk1-100 and of Pgk1-100 crosslink products (XL-Zuo1 or XL-Ssz1) was determined on a single autoradiograph for wild type RAC and the different mutant variants of RAC. The crosslinking efficiency (XL-Zuo1/Pgk1-100 or XL-Ssz1/Pgk1-100) of each sample was calculated and subsequently the ratio of XL-Zuo1/Pgk1-100 or XL-Ssz1/Pgk1-100 in the presence of wild type RAC was set to 1 in order to normalize the biological replicates (see Fig. 3c,d). The original data are provided as a Source Data file.
For complementation experiments translation reactions were performed in either ∆ssb1∆ssb2 or ∆ssb1∆ssb2∆zuo1∆ssz1 translation extract as indicated. Complementation with purified Ssb1 was performed by adding His6-tagged ScSsb1 at a final concentration of 2 µM to the translation reaction prior to the addition of mRNA. Ribosome-free cytosolic extract of various mutant yeast strains for complementation experiments as indicated in Results and Figure Legends was generated as follows. The A260 of a total cell extract prepared by the glass beads method (see above) was determined, and the total cell extract was subsequently adjusted to a final concentration of 800 mM KOAc. […]

ribosomes = assay: ribosome-binding assay; parameters: species or system Saccharomyces cerevisiae
Description: Yeast strains were grown to early log phase on YPD, prior to harvest cycloheximide was added to a final concentration of 100 µg/ml, and subsequently cells were collected via centrifugation at 5000 g. Cell pellets were resuspended in ribosome-binding buffer (20 mM Hepes/KOH pH 7.4, 2 mM Mg(OAc)2, 120 mM KOAc, 100 µg/ml cycloheximide, 2 mM DTT, 1 mM PMSF, protease inhibitor mix) and total cell extracts were prepared by the glass beads method. After a clearing spin at 20.000 g, each 60 µl of the total glass beads extract (A260 between 80 and 100 mAU) was loaded onto a 90 µl sucrose cushion (25% sucrose, 20 mM Hepes/KOH pH 7.4, 120 mM KOAc, 2 mM Mg(OAc)2, 2 mM DTT, 1 mM PMSF, protease inhibitor mix). After centrifugation at 400.000 g at 4 °C for 25 min the cytosolic supernatant was collected and the ribosomal pellet was resuspended in 300 µl ribosome-binding buffer. Aliquots of the total cell extract, cytosolic supernatant, and resuspended ribosomal pellets were precipitated by addition of TCA (trichloroacetic acid) to a final concentration of 5%. TCA pellets were dissolved in SDS-sample buffer and were analyzed on 10% Tris-Tricine gels followed by immunoblotting.

[1] = test system: nascent Pgk1 chains of 50–150 residues; assay: crosslinking to ribosome-bound nascent chain; format: binding, Saccharomyces cerevisiae; settings: Δssb1Δssb2 translation extract (Ssb absent); BS3
Excerpt: as §1, §2

nascent Pgk1-50 = assay: crosslinking to ribosome-bound nascent chain; format: binding, Saccharomyces cerevisiae; settings: wild type translation extract; BS3
Excerpt: as §1, §2

nascent Pgk1-45 = assay: crosslinking to ribosome-bound nascent chain; format: binding, Saccharomyces cerevisiae; settings: wild type translation extract; BS3
Excerpt: as §1, §2

nascent Pgk1-40 = assay: crosslinking to ribosome-bound nascent chain; format: binding, Saccharomyces cerevisiae; settings: wild type translation extract; BS3
Excerpt: as §1, §2

Molecule | crosslink to nascent chains of 50–150 residues [1] | crosslink to nascent Pgk1-50 (nascent Pgk1-50) | crosslink to nascent Pgk1-45 (nascent Pgk1-45) | crosslink to nascent Pgk1-40 (nascent Pgk1-40) | further results
Ssb-ΔC23 |  |  |  |  | crosslink to nascent Pgk1-100 (nascent Pgk1-100; Ssb-ΔC23 translation extract): no crosslink between Ssb-ΔC23 and Pgk1-100 was detected; ribosome association (ribosomes; Ssb-ΔC23 translation extract, supernatant/pellet, immunoblot): not ribosome-associated but fully recovered in the supernatant fraction; ribosome binding (ribosomes; total cell extract, supernatant/pellet, immunoblot): fully recovered in the cytosol
Ssz1: Hsp70 homolog, RAC subunit (protein, left off: His6-SUMO, N-terminal, state not stated, Hsp70 homolog, RAC subunit) MSSPVIGITFGNTSSSIAYINPKNDVDVIANPDGERAIPSALSYVGEDEYHGGQALQQLIRNPKNTIINFRDFIGLPFDKCDVSKCANGAPAVEVDGKVGFVISRGEGKEEKLTVDEVVSRHLNRLKLAAEDYIGSAVKEAVLTVPTNFSEEQKTALKASAAKIGLQIVQFINEPSAALLAHAEQFPFEKDVNVVVADFGGIRSDAAVIAVRNGIFTILATAHDLSLGGDNLDTELVEYFASEFQKKYQANPRKNARSLAKLKANSSITKKTLSNATSATISIDSLADGFDYHASINRMRYELVANKVFAQFSSFVDSVIAKAELDPLDIDAVLLTGGVSFTPKLTTNLEYTLPESVEILGPQNKNASNNPNELAASGAALQARLISDYDADELAEALQPVIVNTPHLKKPIGLIGAKGEFHPVLLAETSFPVQKKLTLKQAKGDFLIGVYEGDHHIEEKTLEPIPKEENAEEDDESEWSDDEPEVVREKLYTLGTKLMELGIKNANGVEIIFNINKDGALRVTARDLKTGNAVKGEL | efficient crosslinks | below the detection limit | most efficiently crosslinked to Pgk1-45 | formed crosslinks with these short nascent chains | localization of Ssz1 in RAC-∆N49 (ribosomes; total cell extract): localized to the cytosol; localization of Ssz1 in wild type, RAC-∆N8, or RAC-∆N16 (ribosomes; total cell extract): ribosome-bound
Ssz1mut: Ssz1 with L439S/K440P/I448F/G495K in the peptide binding groove (protein) MSSPVIGITFGNTSSSIAYINPKNDVDVIANPDGERAIPSALSYVGEDEYHGGQALQQLIRNPKNTIINFRDFIGLPFDKCDVSKCANGAPAVEVDGKVGFVISRGEGKEEKLTVDEVVSRHLNRLKLAAEDYIGSAVKEAVLTVPTNFSEEQKTALKASAAKIGLQIVQFINEPSAALLAHAEQFPFEKDVNVVVADFGGIRSDAAVIAVRNGIFTILATAHDLSLGGDNLDTELVEYFASEFQKKYQANPRKNARSLAKLKANSSITKKTLSNATSATISIDSLADGFDYHASINRMRYELVANKVFAQFSSFVDSVIAKAELDPLDIDAVLLTGGVSFTPKLTTNLEYTLPESVEILGPQNKNASNNPNELAASGAALQARLISDYDADELAEALQPVIVNTPHLKKPIGLIGAKGEFHPVLLAETSFPVQKKLTSPQAKGDFLFGVYEGDHHIEEKTLEPIPKEENAEEDDESEWSDDEPEVVREKLYTLKTKLMELGIKNANGVEIIFNINKDGALRVTARDLKTGNAVKGEL |  |  |  |  | contact of nascent Pgk1-100 with Ssz1mut compared to Ssz1 (nascent Pgk1-100; RACmut-ΔN8 (Zuo1-ΔN8/Ssz1mut) vs RAC-ΔN8): impaired; also recorded: strongly reduced
Zuo1: J-domain protein (Hsp40), RAC subunit (protein) MFSLPTLTSDITVEVNSSATKTPFVRRPVEPVGKFFLQHAQRTLRNHTWSEFERIEAEKNVKTVDESNVDPDELLFDTELADEDLLTHDARDWKTADLYAAMGLSKLRFRATESQIIKAHRKQVVKYHPDKQSAAGGSLDQDGFFKIIQKAFETLTDSNKRAQYDSCDFVADVPPPKKGTDYDFYEAWGPVFEAEARFSKKTPIPSLGNKDSSKKEVEQFYAFWHRFDSWRTFEFLDEDVPDDSSNRDHKRYIERKNKAARDKKKTADNARLVKLVERAVSEDPRIKMFKEEEKKEKERRKWEREAGARAEAEAKAKAEAEAKAKAESEAKANASAKADKKKAKEAAKAAKKKNKRAIRNSAKEADYFGDADKATTIDEQVGLIVDSLNDEELVSTADKIKANAAGAKEVLKESAKTIVDSGKLPSSLLSYFV | efficient crosslinks | below the detection limit | formed crosslinks with these short nascent chains | most efficiently crosslinked to Pgk1-40 | crosslinking of Zuo1 to nascent Pgk1 when RAC or Ssz1 is absent from ribosomes (nascent Pgk1-100; Fig. 1e set-up): strongly enhanced; contact of Zuo1 with nascent Pgk1-100 when Ssz1 was absent or not in a stable complex (nascent Pgk1-100; Δzuo1Δssz1Δssb1Δssb2 RNCs complemented with ribosome-free extracts): remained in contact with Zuo1
